Measurements reported in patent publication US20220064224A1 (NOVOBIND LIVESTOCK THERAPEUTICS, published 2022).
Substitutions are numbered along the chain they refer to.

B1: NBX0426 (VHH)
VHH: QVQLQESGGGLVQPGGSLRLSCAASGIGDRPYVMAWHRQAPGKQRELVATITRDGYTNYADTVKGRFVVSRDNAQNTVYLQMNYLKPADTAVYYCRAYNAYLNLGYWGQGTQVTVST
B2: NBX0415 (VHH)
VHH: QVQLQESGGGLVQAGGSLRLSCAASGRTFSSYAMGWFRQAPGKEREYVAAINRFGGTYYADFVKGRFTISRDNAKNTVYLQMNSLKPEDTAVYYCAASRILGLTTAREDYNYWGQGTQVTVSS
B3: NBX0429 (VHH)
VHH: B2 VHH with E6Q, R99G, T104S
B4: NBX0412 (VHH)
VHH: B2 VHH with A24V, G55S, T104S
B5: NBX0431 (VHH)
VHH: B2 VHH with E6Q, A50G, T104S
B6: NBX0428 (VHH)
VHH: QVQLQESGGGLVQAGGSLRLSCAASGSTSSINHIAWYRQAPGKQREWVATITSGGGSTYYTNSVKGRFTISRDNAKNTVYLQMNNLKPEDTAVYYCKANQAAGNKDYWGQGTQVTVSS
B7: NBX0430 (VHH)
VHH: QVQLQQSGGGLVQAGGSLRLSCAASGLTFGSPAMAWYRQAPGKEREWVATISRGGSTYYADSVKGRFTISRDNAKNTSYLQMNSLKPEETAVYYCAAGLSSMRYDYWGQGTQVTVSS
B8: NBX0417 (VHH)
VHH: QVQLQESGGGLVQPGGSLRLSCAASGSIFSINVMAWYRQAPGKEREYVASITRGGGDYYANSVKGRFTISRDNAKNAVYLQMNSLKPEDTAVYECNAQISQTISGDYRNYWGQGTQVTVSS
B9: NBX0414 (VHH)
VHH: QVQLQESGGGLVQAGGSLRLSCRASGRTFSSSSMGWFRQAPGKERDFVAAISWDGASTRYADSVKGRFTISRDNAKNTVYLQMNSLKPEDTAVYYCAASTMDFIVLLTKWYPYWGQGTQVTVSS
B10: NBX0416 (VHH)
VHH: B9 VHH with R23A, S52N, D54S, A56D, N77S
B11: NBX0411 (VHH)
VHH: QVQLQESGGGLVQPGGSLRLSCAVSGLAFGRVAMAWYRQAPGKERELVARISSGGYTNYADSAKGRFTISRDNVKNLVYLQMNSLKFDDTAVYYCNSGWSGDYWGKGTLVTVSS
B12: NBX0421 (VHH)
VHH: B11 VHH with E6Q, V32Y, S53N, L77T, Q81E, D102N

target: Canine Parvovirus Type 2 (CPV2) (Canine parvovirus type 2); experiment: cell-based or functional assay

Binder	Invasion reduced by >50% at 5 µM NBX [%]
B1	> 50
B2	≤ 50
B3	≤ 50
B4	≤ 50
B5	≤ 50
B6	> 50
B7	≤ 50
B8	≤ 50
B9	> 50
B10	≤ 50
B11	> 50
B12	> 50
